Test results as given in US20090298169A1, “Pancreatic and Liver Endoderm Cells and Tissue by Differentiation of Definitive Endoderm Cells Obtained from Human Embryonic Stems” (The University of Georgia Research Foundation, priority 2006, published 2009).

Tested on: BG02 hESCs
Assay: QRT-PCR of mesendoderm, definitive endoderm and other lineage transcripts in hESCs differentiated in defined media
Format: cell-based, human
Settings: FIG. 7; Wnt3a 25 ng/ml; over 72 hours of treatment
Description: For DE differentiation, media was replaced after ˜18-24 hours with differentiation media (a), in the presence or absence of Wnt3a (25 ng/ml). RNA was prepared from cultures at times indicated and subject to QRT-PCR analysis of T, MixL1, GSC, Sox17 and CXCR4 transcripts. QRT-PCR reactions are normalized to GAPDH control. ‘Assays on demand’ QRT-PCR reactions were from Applied Biosystems and have been described previously (McLean et al., 2007).
BG02 hESCs were plated in defined conditions (a) and after 18 hours media was switched to differentiation media (a) with Wnt3a (25 ng/ml) for the first 24 hours. The time course proceeded for 96 hours. Untreated hESCs (96 hours) or cells in differentiation media (a) were collected at 24, 48, 72 and 96 hours for QRT-PCR analysis. ‘Assays on demand’ QRT-PCR reactions were from Applied Biosystems and have been described previously (McLean et al., 2007).
Culture of hESCs: Methods: hESCs are preferably grown in MEF-CM (details from previous filings) or defined media using Matrigel (1:200 dilution) as a growth matrix (for example). Cells are passaged manually or by using enzymatic methods such as collagenase or accutase and typically plated at 1×10^6 per 60 mm dish for 12-24 hours in hESC media then media is changes to promote DE differentiation (see ‘Differentiation media’ below). During differentiation, ‘differentiation media’ is replaced every day. […]

B1: Wnt3a: growth factor Wnt3a (25 ng/ml, R&D Systems) (protein, UniProt P56704 19-352, looked up)
Protein Wnt-3a: SYPIWWSLAVGPQYSSLGSQPILCASIPGLVPKQLRFCRNYVEIMPSVAEGIKIGIQECQHQFRGRRWNCTTVHDSLAIFGPVLDKATRESAFVHAIASAGVAFAVTRSCAEGTAAICGCSSRHQGSPGKGWKWGGCSEDIEFGGMVSREFADARENRPDARSAMNRHNNEAGRQAIASHMHLKCKCHGLSGSCEVKTCWWSQPDFRAIGDFLKDKYDSASEMVVEKHRESRGWVETLRPRYTYFKVPTERDLVYYEASPNFCEPNPETGSFGTRDRTCNVSSHGIDGCDLLCCGRGHNARAERRREKCRCVFHWCCYVSCQECTRVYDVHTCK
For B1, the “amount of CXCR4 mRNA produced, presence versus absence of Wnt3a” value was “improves the amount of CXCR4 mRNA produced”.
